Reference: patent US20240307564A1 (SUZHOU TRANSCENTA THERAPEUTICS, published 2024)

Experiments:
human CLDN18.2 [1] = target: T1, human CLDN18.2 (human); assay: KinExA on gastric cell lines
T1 construct: On HEK293-CLDN18.2 and MKN45-CLDN18.2 transfected cells and on the gastric cell lines NUGC4 and KATOIII (endogenous); also called Claudin18.2; claudin 18 splice variant 2

human CLDN18.2 [2] = target: T1, human CLDN18.2; assay: cell-based or functional assay

fold higher affinity than IMAB362 (human CLDN18.2 [1]): > 8 fold
ADCC EC50 on NUGC4 cells (human CLDN18.2 [2]): ~0.59 µg/mL
ADCC reporter EC50 (human CLDN18.2 [2]): 0.05 µg/mL
CDC activity (human CLDN18.2 [2]): > 20 fold
B1: 18B10-HaLa (antibody, human IgG1, kappa, V domains shown)
VH: QVQLVQSGAEVKKPGASVKVSCKASGYTFTGYNMNWVRQAPGQGLEWMGNIDPYYGGTSYNQKFKGRVTMTIDKSTSTVYMELSSLRSEDTAVYYCARMYHGNAFDYWGQGTTVTVSS
VL: DIVMTQSPDSLAVSLGERATINCKSSQSLLNSGNLKNYLTWYQQKPGQPPKLLIYWASTRKSGVPDRFSGSGSGTDFTLTISSLQAEDVAVYYCQNDYSYPLTFGGGTKVEIKR
notes: humanized; variable regions fused with human IgG1 and human kappa constant regions; also called humanized 18B10 HaLa
